This is an account of results in the DeepSol protein solubility set.

The nature of this data set: soluble on expression in E. coli; label from the status in PepcDB or PDB records.
For “AAKGNMQCNIFVPAGTSKGKTTQTRLYGANCIEVEGTREDVALAAIESSVTHGSHYVGHNWHPLFIEGVKSIAYEIWEQCGYKAPDNFVVPAGNGSLLAGAYIGFSELLKGGEISKLPRLFGIQSESIQPFVQTFNNKEINITSEDTIAEGIKIKRSSRMNEIVQFVKETNGNFISVNEQQIQSALKEMGAQGYFIEPTSATAFAGIAQLIKTQEIKPDELTVGVVTGNGLKATNSIEHLINDMRG”, the “soluble on expression in E. coli” value is “not soluble”.

With “AAQPADIVLTQTPSSLPVSVGEKVTMTCKSSQTLLYSNNQKNYLAWYQQKPGQSPKLLISWAFTRKSGVPDRFTGSGSGTDFTLTIGSVKAEDLAVYYCQQYSNYPWTFGGGTRLEIKRGGGGSGGGGSGGGGSGGGGSEVQLQQSGPEVVKTGASVKISCKASGYSFTGYFINWVKKNSGKSPEWIGHISSSYATSTYNQKFKNKAAFTVDTSSSTAFMQLNSLTSEDSAVYYCVRSGNYEEYAMDYWGQGTSVTVSS”, the “soluble on expression in E. coli” value was “soluble”. For “ACGYSDRVLQLTLGNSTITTQEAANSVVAYGRWPEFIRDDEANPVDQPTEPDVATCRFYTLDTVMWGKESKGWWWKLPDALRDMGLFGQNMYYHYLGRSGYTVHVQCNASKFHQGALGVFAIPEYCLAGDSDKQRYTSYANANPGERGGKFYSQFNKDNAVTSPKREFCPVDYLLGCGVLLGNAFVYPHQIINLRTNNSATIVLPYVNALAIDSMVKHNNWGIAILPLSPLDFAQDSSVEIPITVTIAPMCSEFNGLRNVTAPKFQ” the value was “soluble”; for “ACTQPSDWVPPAKNDALVIALKKVIGGRLSDAFHIRDKLQRRDAIAAVKDDVIQQLAGRLEVEGWNLAELLKEFGELEYRTMRDALLDTKVRIDGRSLEAVRP”, “not soluble”; for “ADMEVIELNKCTSGQSFEVILKPPSFDGVPEFNASLPRRRDPSLEEIQKKLEAAEERRKYQEAELLKHLAEKREHEREVIQKAIEENNNFIKMAKEKLAQKMESNKENREAHLAAMLERLQEKDKHAEEVRKNKELKEEASR”, “soluble”. For “ADMGEKFDATFKAQVKAAKADMVMLSPKDAYKLLQENPDITLIDVRDPDELKAMGKPDVKNYKHMSRGKLEPLLAKSGLDPEKPVVVFCKTAARAALAGKTLREYGFKTIYNSEGGMDKWLEEGLPSLDRSHHHHHH” the value was “soluble”; for “AEIVEGRDYTVLSAPQPTEGDSEHIEVIEFFWYGCPHCSDLHPHLSRWLENKPADVAFRFVPAILRNNWVPGAKTFYAMESLGLTQTLHDKVYHAIHREKTDLSKEATLFDWIGKQGVDRDKFIGAYNSFTVQNQANRSAQMIRQYKLTGVPALVVDGRYLTSGKAGGTPQDTISVLNQLIEK”, “not soluble”; for “AEKTNYAVTYKSDSVPSISMAVNTEQSSHYISQFIAVQGLEDHSAKSIFIQDMLQRIVSKRLMHYVREELSLDYAPYALMVNADSEFKPHWVMGAQVDPKNAELIESAIDKVIKDLLRGVTENEVNAAAKQLVVDLEPLKNNSTQQAWLLNRYTIHNYGIEALFGISETANSVNAEDINRLIKYSFGKNSHQFKYLSTPI”, “not soluble”. For AELPPEFAAQLRKIGDKVYCTWSAPDM the value was “soluble”. For “AEPVKVGSKIDTEGALLGNMIQQVLESHGVKTINKIQLGTTPVVRGAIVAGELDIYPEYTGNGAFFFKDENDPAWKNAQQGYEKVKRLDQEKHQLVWLTPAPANNTWTIAVRQDLAEKNKLTSLADLSRYLKQGGEFKLAASAEFIERPDALPAFEKAYGFNLNQNQLLSLAGGDTAVTIKAAAQQTSGVNAAMAYGTDGPVAALGLQTLSDPQGVQPIYAPTPVVREAVLKAYPQIADWLQPVFASLDEKTLQQLNARIAVEGQDAKRVAADYLQQKGLLK”, the “soluble on expression in E. coli” value is “not soluble”. For “AHHHHHHGSHFIKHFEEELIALSNAPHRGGLTKARGFFFMKVEKNYRGDYKKDCLEFERKNGLRSFVGFMTAVDIEKVMAIKSLGNVEVYLTAGISNPAIAGEEPKPWEPGTINMAIVIDEGLTIGAMANAIMTATEAKTYTLLKLGYNATGTTSDGIGVFARQGNVEWAGTATRLGFEIGKAVREALEESIKKWEKIKSL” the value was “soluble”. For “AHHHHHHGSKAIILAAGKGERLRPLTDDRPKVVLKIANKPIISYVLENLDPFVDEFIIVVKYMKEKVIDLLGDEFRGKPITYVEQGEEEGTAAAVYSVKEFIESNEEFFVVNGDLYFEPDAVKGLLHVFKKEKGDAGIVVKEFENLSQYGMVEVENGKVKGIIEKPGNVKGYANLGIYIFKSDVFDYIENTEISERGEYEITDTINLMIKDGKSVVYYNYEGFWSDIGRPWDLLEVNEYILKTKLKHEIRGVVEEGATIIPPVEIGEGTIVRAGSYIIGPVKIGKNCRIGPNCYIRPYTSIGDNCHIGNAVEVKNSIIMDNSNAPHLNYVGDSIIGENTNLGAGTITANLRHDKGTIKVEVKGKLEDSGRRKLGAIIGHNVKVGINVTIYPGRKIGSNSFIGPGVIVDKNIPQNVLVTVKQEKKVIEK” the value was “soluble”; for “AHHHHHHGSKIARVNGLWITIPNVRYSFFNTPYIGHRIGTAVDVYFEDRALFPFEEGKLIEVRKIRTPRYIPVDHDYLMVFKLGEFCLKVLHVDPSVKIGEKVFLGDEIGKLRLSGFFSPWSDKHAHFEVRDCNDRYRARGAFPLFPEVKPLVPIVKGNTFEVVERKGHYLWLKPLETKGKGMTPLGNIEGGLPHYRYGAIFSGREGKLFGIDVKAQEILENGVGIFKPNFEVLANGVKVRGIGVYCNEERVKLIGGNFEVGDIIKIEIKARLGT”, “not soluble”. For “AHHHHHHGSKLEIRDLSVGYDKPVLERITMTIEKGNVVNFHGPNGIGKTTLLKTISTYLKPLKGEIIYNGVPITKVKGKIFFLPEEIIVPRKISVEDYLKAVASLYGVKVNKNEIMDALESVEVLDLKKKLGELSQGTIRRVQLASTLLVNAEIYVLDDPVVAIDEDSKHKVLKSILEILKEKGIVIISSREELSYCDVNENLHKYSTKIDKKD” the value was “soluble”; for “AHHHHHHGSKVYAPATIANFGPGFDVFGLAIETPRDTVIAKESDDFRIEVEGYKVPENDENVALVAAKALFKLVGEEGGIYLKLKKGIRPKSGLGSSGASSIAGAVAAARILGVEDDEIIIRAALEGERKASGSPHGDNVVPSYYGNFTIVESLNPLRVHNIEVDFKVVVILPSVEVPTSEARKVLPKKVPLKDAVKNIALASSLVLALKEGNLEEVGRLLEDHLALPYRLSLVPWFPKVKEAAKEAGAYGVMISGSGPAVFALGENLKEIGKAMKEAFESFGIEAEYWVTKVGRGAKWC”, “not soluble”. For the sequence “AHHHHHHGSLIVVRPGRKKNELEAFIIENPPEKLSQRRNLKADRVVRLIMRDNRLFKALEGSQYLNPKEVERALRNSRIVLVNANEWEEYFKKRLMNKRVEKADICRLCLLNGKITVLTEGNRIRYRDEYICESCAEEELKRELRFRFNSIGMLEQAKKLLERFRDLDKVISIFDPSFDPTKHPEITKWDELKAKHIRVEKMHIDELNIPEEFKKVLKAEGINELLPVQVLAIKNGLLEGENLLVVSATASGKTLIGELAGIPKALKGKKMLFLVPLVALANQKYEDFKRRYSKLGLKVAIRVGMSRIKTKEEPIVLDTGTDAHIIVGTYEGIDYLLRAGKKIGNVGTVVIDEIHMLDDEERGARLDGLIARLRKLYSNAQFIGLSATVGNPQELARKLGMKLVLYDERPVDLERHLIIARNESEKWRYIAKLCKAEAMRKSEKGFKGQTIVFTFSRRRCHELASFLTGQGLKAKAYHSGLPYVQRKLTEMEFQAQMIDVVVTTAALGAGVDFPASQVIFESLAMGNKWITVREFHQMLGRAGRPQYHEKGKVYIIVEPGKKYSAQMEGTEDEVALKLLTSPIEPVIVEWSDEFEEDNVLAHACVFNRLKVIEEVQSLCLGANQSAKNVLEKLMEKGLVKIYGDKVEATPYGRAVSMSFLLPREAEFIRDNLESTDPIEIAIKLLPFENVYLPGSLQREIESAVRGKISSNIFSSSFASVLEELDKIIPEISPNAAERLFLIYQDFFNCPEQDCTEFAMERIGRKIIDLRREGYEPSKISEHFRKVYALILYPGDVFTWLDGIVRKLEAIERIARVFNKRRVVEDTIRVRREIEEGKILKGERR”, the “soluble on expression in E. coli” value was “not soluble”.
